Earlier results in patent US20130064803A1, “BIO-REPLENISHMENT (BioRep) FOR COGNITIVE HEALTH” (Naidu LP, priority 2011, published 2013).

Conditions: intravenous infusion

B1: LF: 80-kD heparan- and metal-binding glycoprotein, member of the transferrin super-family (protein, UniProt P02788 20-710, looked up)
Lactotransferrin: GRRRSVQWCAVSQPEATKCFQWQRNMRKVRGPPVSCIKRDSPIQCIQAIAENRADAVTLDGGFIYEAGLAPYKLRPVAAEVYGTERQPRTHYYAVAVVKKGGSFQLNELQGLKSCHTGLRRTAGWNVPIGTLRPFLNWTGPPEPIEAAVARFFSASCVPGADKGQFPNLCRLCAGTGENKCAFSSQEPYFSYSGAFKCLRDGAGDVAFIRESTVFEDLSDEAERDEYELLCPDNTRKPVDKFKDCHLARVPSHAVVARSVNGKEDAIWNLLRQAQEKFGKDKSPKFQLFGSPSGQKDLLFKDSAIGFSRVPPRIDSGLYLGSGYFTAIQNLRKSEEEVAARRARVVWCAVGEQELRKCNQWSGLSEGSVTCSSASTTEDCIALVLKGEADAMSLDGGYVYTAGKCGLVPVLAENYKSQQSSDPDPNCVDRPVEGYLAVAVVRRSDTSLTWNSVKGKKSCHTAVDRTAGWNIPMGLLFNQTGSCKFDEYFSQSCAPGSDPRSNLCALCIGDEQGENKCVPNSNERYYGYTGAFRCLAENAGDVAFVKDVTVLQNTDGNNNEAWAKDLKLADFALLCLDGKRKPVTEARSCHLAMAPNHAVVSRMDKVERLKQVLLHQQAKFGRNGSDCPDKFCLFQSETKNLLFNDNTECLARLHGKTTYEKYLGPQYVAGITNLKKCSTSPLLEACEFLRK
For B1, the “time to reach the cerebrospinal fluid” value is listed as no more than 30 min.
